Laboratory results published in the supplement of paper PMC7877785.
± gives the uncertainty stated by the source.

Test: self-splicing fitness, log relative to wild type (ln ratio); higher = more splicing; Tetrahymena group I intron in knt gene, E. coli kanamycin selection, DiMSum; sequences stand for … in CUCUCU…GGAGGGAAAAGUUAUCAGGCAUGCACCUGGUAGCUAGUCUUUAAACCAAUAGAUUGCAUCGGUUUAAAAGGCAAGACCGUCAAAUUGCGGGAAAGGGGUCAACAGCCGUUCAGUACCAAGUCUCAGGGGAAACUUUGAGAUGGCCUUGCAAAGGGUAUGGUAAUAAGCUGACGGACAUGGUCCUAACCACGCAGCCAAGUCCUAAGUCAACAGAUCUUCUGUUGAUAUGGAUGCAGUUCACAGACUAAAUGUCGGUCGGGGAAGAUGUAUUCUUCUCAUAAGAUAUAGUCGGACCUCUCCUUAAUGGGAGCUAGCGGAUGAAGUGAUGCAACACUGGAGCCGCUGGGAACUAAUUUGUAUGCGAAAGUAUAUUGAUUAGUUUUGGAGUACUCGUGGUCG
How it was run: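 Six replicate transformations of E. coli BL21(DE3) with a pET-22b(+) library were grown overnight at 37°C or 30°C. The library randomised all eight P1ex-region intron nucleotides, the intron lying in the knt kanamycin-resistance gene, and plates were LB agar with or without 25 μg/mL kanamycin plus 100 μg/mL carbenicillin, 50 μM IPTG and 0.2% rhamnose. Pooled colonies were amplicon-sequenced on an Illumina HiSeq 2500, and fitness is the DiMSum error-weighted combination of wild-type-normalised replicate fold changes, kanamycin versus none.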

UACGAGCAAUAUUACGUGUG
self-splicing fitness (ln) (30 °C): -2.43 ± 0.15 | self-splicing fitness (ln) (37 °C): -1.82 ± 0.12

UACGAGCAAUAUUACGUUCU
self-splicing fitness (ln) (30 °C): -2.38 ± 0.14 | self-splicing fitness (ln) (37 °C): -2.35 ± 0.16

UACGAGCAAUAUUACGUUGC
self-splicing fitness (ln) (30 °C): -3.28 ± 0.32 | self-splicing fitness (ln) (37 °C): -2.18 ± 0.33

UACUAGCAAUAUUACGAAAG
self-splicing fitness (ln) (30 °C): -2.94 ± 0.11 | self-splicing fitness (ln) (37 °C): -1.93 ± 0.13

UACUAGCAAUAUUACGAAGG
self-splicing fitness (ln) (30 °C): -3.46 ± 0.29 | self-splicing fitness (ln) (37 °C): -1.04 ± 0.34

UACUAGCAAUAUUACGAAUG
self-splicing fitness (ln) (30 °C): -0.956 ± 0.083 | self-splicing fitness (ln) (37 °C): 0.689 ± 0.12

UACUAGCAAUAUUACGACCC
self-splicing fitness (ln) (37 °C): -0.364 ± 0.39

UACUAGCAAUAUUACGACUG
self-splicing fitness (ln) (30 °C): -0.572 ± 0.095 | self-splicing fitness (ln) (37 °C): 0.113 ± 0.13

UACUAGCAAUAUUACGAGCG
self-splicing fitness (ln) (30 °C): -0.191 ± 0.088 | self-splicing fitness (ln) (37 °C): 0.655 ± 0.11

UACUAGCAAUAUUACGAGCU
self-splicing fitness (ln) (30 °C): -2.4 ± 0.24

UACUAGCAAUAUUACGAUAA
self-splicing fitness (ln) (30 °C): -1.05 ± 0.085 | self-splicing fitness (ln) (37 °C): -0.513 ± 0.093

UACUAGCAAUAUUACGCAAA
self-splicing fitness (ln) (30 °C): -2.94 ± 0.31 | self-splicing fitness (ln) (37 °C): -0.966 ± 0.2

UACUAGCAAUAUUACGCAGC
self-splicing fitness (ln) (30 °C): -2.49 ± 0.39 | self-splicing fitness (ln) (37 °C): -2.08 ± 0.39

UACUAGCAAUAUUACGCAGG
self-splicing fitness (ln) (30 °C): -1.77 ± 0.14 | self-splicing fitness (ln) (37 °C): -1.49 ± 0.15

UACUAGCAAUAUUACGCAUG
self-splicing fitness (ln) (30 °C): -1.72 ± 0.099 | self-splicing fitness (ln) (37 °C): -0.591 ± 0.12

UACUAGCAAUAUUACGCCCG
self-splicing fitness (ln) (30 °C): 0.342 ± 0.24 | self-splicing fitness (ln) (37 °C): -1.04 ± 0.2

UACUAGCAAUAUUACGCGGG
self-splicing fitness (ln) (30 °C): -3.19 ± 0.22 | self-splicing fitness (ln) (37 °C): -1.75 ± 0.2

UACUAGCAAUAUUACGCUCA
self-splicing fitness (ln) (30 °C): -0.532 ± 0.095 | self-splicing fitness (ln) (37 °C): 0.288 ± 0.13

UACUAGCAAUAUUACGCUCG
self-splicing fitness (ln) (30 °C): -0.908 ± 0.13 | self-splicing fitness (ln) (37 °C): 0.0226 ± 0.15

UACUAGCAAUAUUACGGCAC
self-splicing fitness (ln) (30 °C): -2.77 ± 0.19 | self-splicing fitness (ln) (37 °C): -1.73 ± 0.2

UACUAGCAAUAUUACGGCCC
self-splicing fitness (ln) (30 °C): -1.47 ± 0.16 | self-splicing fitness (ln) (37 °C): -2.36 ± 0.28

UACUAGCAAUAUUACGGCUU
self-splicing fitness (ln) (30 °C): -1.2 ± 0.096 | self-splicing fitness (ln) (37 °C): 0.146 ± 0.12

UACUAGCAAUAUUACGGUAA
self-splicing fitness (ln) (30 °C): -2.33 ± 0.14 | self-splicing fitness (ln) (37 °C): -1.01 ± 0.12

UACUAGCAAUAUUACGGUUG
self-splicing fitness (ln) (30 °C): -2.18 ± 0.081 | self-splicing fitness (ln) (37 °C): -1.06 ± 0.11

UACUAGCAAUAUUACGUAAG
self-splicing fitness (ln) (30 °C): -4.32 ± 0.31 | self-splicing fitness (ln) (37 °C): -3.07 ± 0.3

UACUAGCAAUAUUACGUACG
self-splicing fitness (ln) (30 °C): -2.76 ± 0.1 | self-splicing fitness (ln) (37 °C): -1.31 ± 0.091

UACUAGCAAUAUUACGUUGA
self-splicing fitness (ln) (30 °C): -3.37 ± 0.17 | self-splicing fitness (ln) (37 °C): -0.894 ± 0.12

UAGAAGCAAUAUUACGAAAG
self-splicing fitness (ln) (30 °C): -1.97 ± 0.21 | self-splicing fitness (ln) (37 °C): -1.26 ± 0.18

UAGAAGCAAUAUUACGAACA
self-splicing fitness (ln) (30 °C): -0.322 ± 0.16 | self-splicing fitness (ln) (37 °C): -0.859 ± 0.17

UAGAAGCAAUAUUACGACUC
self-splicing fitness (ln) (30 °C): -0.192 ± 0.12 | self-splicing fitness (ln) (37 °C): -0.013 ± 0.16

UAGAAGCAAUAUUACGAGUA
self-splicing fitness (ln) (30 °C): -1.31 ± 0.096 | self-splicing fitness (ln) (37 °C): -0.33 ± 0.12

UAGAAGCAAUAUUACGCUGU
self-splicing fitness (ln) (30 °C): -3.73 ± 0.26 | self-splicing fitness (ln) (37 °C): -0.977 ± 0.15

UAGAAGCAAUAUUACGGAGU
self-splicing fitness (ln) (30 °C): -3.56 ± 0.15 | self-splicing fitness (ln) (37 °C): -2.1 ± 0.13

UAGAAGCAAUAUUACGGAUA
self-splicing fitness (ln) (30 °C): -1.18 ± 0.1 | self-splicing fitness (ln) (37 °C): -0.43 ± 0.11

UAGAAGCAAUAUUACGGCCG
self-splicing fitness (ln) (30 °C): 0.101 ± 0.083 | self-splicing fitness (ln) (37 °C): -0.0885 ± 0.11

UAGAAGCAAUAUUACGGGAC
self-splicing fitness (ln) (30 °C): -3.1 ± 0.36 | self-splicing fitness (ln) (37 °C): -3.21 ± 0.47

UAGAAGCAAUAUUACGGUAG
self-splicing fitness (ln) (30 °C): -1.88 ± 0.13 | self-splicing fitness (ln) (37 °C): -0.213 ± 0.13

UAGAAGCAAUAUUACGGUGC
self-splicing fitness (ln) (37 °C): -1.46 ± 0.48
